To fix the notation:
B1: TPR t1 (parent)
chain: GACCAAUCUGCCCUCAGAGCUCGAGAACAUCUUCGGAUGCAGAGGAGGCAGGCUUCGGUGGCGCGAUAGCGCCAACGUCCUCAACCUCCAAUGCAUCCCACCACAUGAUGAUGCCUGAAGAGCCUUGGUUUUUUG

The series covers variants of B1. As to the kind of experiment: polymerase ribozyme fitness, log enrichment relative to wild type (log ratio); higher = more active; in vitro selection for triplet polymerase activity. Summed up: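 To select mutant libraries of each subunit of a heterodimeric triplet polymerase ribozyme, built by PCR and transcribed, each was annealed with a biotinylated primer, partner subunit and triplets, then incubated frozen at −7 °C. Extended constructs were gel-excised, captured on streptavidin beads and amplified by RT-PCR, in one round carried out in triplicate. Illumina sequencing of input and output libraries kept genotypes with ≥10 input reads and ≥1 read per output. Fitness is the base-2 logarithm of genotype enrichment relative to wild-type enrichment, from inverse-variance-weighted replicate averages.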
With GACCAAUCUGCCCUCAGAGCUCGAGAACAUCUUCGGCUGCAGAGGAGGCAGGCUUCGGUGGCGCGAUAGUGCCAACGUCCUCAAUCUCCAAUGCAUCUCACCACAUGAUGAUUCCUGAAGAGCCUUGGUUUUAUG, the “polymerase ribozyme fitness (log ratio)” value was -5.51.
Turning to GACCAAUCUGCCCUCAGAGCUCGAGAACAUCUUCGGCUGCAGCGGAGGCAGGAUUCGGUGGCGCGAUAGCCCCAACGUCCUCAACUUCCACUGCAUCCCACCACAUGAUGAUGCCUGAAGAGCCUUGGUUUUUUG, the “polymerase ribozyme fitness (log ratio)” value was -6.26.
With GACCAAUCUGCCCUCAGAGCUCGAGAACAUCUUCGGCUGCAGAGGAGGCAGGCUUCGGUGGCGCGAUAGCGCAAACGUCCUCAACCUCCAAUGCAUCCCACCACAUGAUGAUGCCUGUAGAGCCGUGGUUUUUUG, the “polymerase ribozyme fitness (log ratio)” value was -0.0605.
For GACCAAUCUGCCCUCAGAGCUCGAGAACAUCUUCGGCUGCAGAUGAGGCAGGCUUCGGUGGAGCGAUAGCGCCAACGUCCUCAACCUCCAAUGCAUCCCACCACAUGAUGAUGCCUGAAGAGCCUUGGUUUUUUG the value was -2.41.
For GACCAAUCUGCCCUCAGAGCUCGAGAACAUCUUCGGCUGCAGAGGAGGCAGGCUUCGGUGGCGCGAUAGCGCCAACGUCCUCAACCUCCAAUGCAUCCCACAACAUGAUGAUGCCUGAAGAGCCUUGGUUUUUUG the value was -2.31.
For GACCAAUCUGCCCUCAGAGCUCGAGAACAUCUUCGUAUGCAGAGGAGGCAGGCUUCGGUGGCGCGAUAGCGCCAACGUCCUCAACCUCCAAUGCAUCCCACCACAUGAUGAUGCCUGAAGAGCCAUGGUUUUUUG the value was -1.4; for GACCAAUCUGCCCUCAGAGCUCGAGAACAUCUUCGGCUGCAGAGGAGGCAGGCUUCGGUGGCGCGAUAGCGCCAACGUCCUCAACCUCCACUGCAUCCCACCACAUGAUGAUGCCUGAAGAGCCUUGGUUUUUUG, -0.946.
With GACCAAUCUGCCCUCAGAGCUCGAGAACAUCUUCGGCUGCAGAGGAGGCAGGUUUCGGUGGCGCGAUAGCGCCAACGUCCUCAACCUCCAAUGCAUCCCACCACAUGAUGAUGCCUGAAGAGCCUUGGUUUUUUG, the “polymerase ribozyme fitness (log ratio)” value was -0.73.
For GACCAAUCUGCCCUCAGAGCUCGAGAACAUCUUCGGCUGCAGAGGAGGCAGGCUUCGGUGGCGCGAUAGCGCCAACGUCCUCAACCUCCAAUGCAUUCCACCACAUGAUGAUGCCUGAAGAGCCUUGGUUUUUUG, the “polymerase ribozyme fitness (log ratio)” value is -1.69.
In the case of GACCAAUCUGCCCUCAGAGCUCGAGAACAUCUUCGGCUGCAGAGGAGGAAGGCUUCGGUGGCGCGAUAGCGCCAAGGUCCUCAACCUCCAAUGCAUCCCACCACAUGAUGAUGCCUAAAGAGGCAUGGUUUUUUG, the “polymerase ribozyme fitness (log ratio)” value is -1.24.
For GACCAAUCUGCCCUCAGAGCUCGAGAACAUCUUCGGCUGAAGAGGAGGCAGACUUCGGUGCCGCGAUAGCGCCAACGUCCUCAACCUCCAAUGCAUCCCACCACAUGAUGCUGCCUGAAGAGCCUUCGUUUUUUG the value was -5.24.
For GACCAAUCUGCCCUCAGAGCUCGAGAACAUCUUCGGCUGCAGAGGAGGCAGGCUUCGGUGGCGCGAUAGCGUCAACGUCCUCAACCUCCAAUGCAUCCCACCACAUGAUGAUGCCUGAAGAGCCUUGGUUUUUUG the value was 0.162; for GACCAAUCUGCCCUCAGAGCUCGAGAACAUCUUCGGCUGCAGAGGAGGCAGGGUUCGGUGGCGCGAUAGCCCCAACGUCCUUAACCUCCAAUGCAUCCCAACACAUGAUGAUGCCUGAUGAGCCUUGGUUUUUUG, -2; for GACCAAUCUGCCCUCAGAGCUCGAGAACAUCUUCGGCUGCAGAGGGGGAAGGCUUCGGUGGCGCGAUAGCGACAACGUCCUCAACCUCCAAUGCAUCCCACCACAUGAUGAUGCCUGAAGAGCCUUGGUUUUUUG, -0.663.
On to GACCAAUCUGCCCUCAGAGCUCGAGAACAUCUUCGGCUGCAGAGGAGGCAGGCUUCGGUGGCGCGAUAGGGCCAACGUUCUCAACCUCCAAUGCAUCCCACCACAUGAUGAUGCCUGAAGUGCCUUGGUUUUUUG, for which the “polymerase ribozyme fitness (log ratio)” value is 0.503.
On to GACCAAUCUGCCCUCAGAGCUCGAGAACAUCUUCGGCUGCAGAGGAGGCAGGCUUCGGUGGCGCGAUAGCGGCAACGUCCUCAACCUCCAAUGCAUCCCACCACAUGAUGAUGCCUGAAGAGGCUUGGUUUUUUG, for which the “polymerase ribozyme fitness (log ratio)” value worked out at 0.506.
For the variant GACCAAUCUGCCCUCAGAGCUCGAGAACAUCUUCGUAUGCAGAGGAGGCAGGCUUCGGUGGCGCGAUAGCGCCAACGCCCUCAACCUCGAAUGCAUCCCAACACAUGAUGAUGCCUGAAGAGCCUUGGUUUUUUG, the “polymerase ribozyme fitness (log ratio)” value is -4.13.
For GACCAAUCUGCCCUCAGAGCUCGAGAACAUCUUCGGCUGCAGAGGAGGCAGGCUUCGGUGGCGUGAUAGCGCCAACGUCCUCAACCACCAAUGCAUCCCACCACAUGAUGAUGCCUUAAGAGCCUUGGUUUUUUG the value was -3.55; for GACCAAUCUGCCCUCAGAGCUCGAGAACAUCUUCGGCUGCAGAGGAGGCAGGCUUUGGUGGCGCGAUAGCGCCAACGUCCUCAACCUCCAAUGCAUCCCACCACAUGAUGAUGCCUGAAGAGCCUUGGUUUUUUG, 0.093; for GACCAAUCUGCCCUCAGAGCUCGAGAACAUCUUCGUAUGCAGAGGAGGCAGGCUUCGGUGGCGCGAUAGCGCCAACGUCCUCAACCUCCAAUGCAUCCCACCACAUGAUGAUGCCUGAAGAGCCUUGGUCUUUUG, -0.893.
On to GACCAAUCUGCCCUCAGAGCUCGAGAACAUCUUCGGCUGCAGAGGAGGCAGGCUUCGGUGGCGCGAUAGUGCCAACGUCCUCAACCUCCAAUGCAUCCCACCACAUGAUGAUGCCUGAAGAGCCUUGGUUUUUUG, for which the “polymerase ribozyme fitness (log ratio)” value was -0.649.

The values above are taken from the RNAGym collection of RNA variant scans (doi:10.1073/pnas.2313332121).
